Data reported in article PMC4186791.

How the values were obtained:
Test in all cases: two-hybrid; LexA-Ubx variant (pLexA) and B42-partner (pB42) co-transformed into S. cerevisiae EGY48 carrying p8op-LacZ; blue/white colonies on X-gal and liquid β-galactosidase (ONPG) assay after galactose induction at 30°C, reported in Miller units
[1] = molecular target: UbxIVa Pro4 (Drosophila melanogaster)
[2] = molecular target: UbxIb N103 Pro4 (Drosophila melanogaster) (UniProt P83949)
[3] = molecular target: UbxIb Δ103–216 (Drosophila melanogaster) (UniProt P83949)
Sequence of UbxIb Δ103–216 (Drosophila melanogaster) (P83949 other isoform, or with tags, fused parts or gaps mutant): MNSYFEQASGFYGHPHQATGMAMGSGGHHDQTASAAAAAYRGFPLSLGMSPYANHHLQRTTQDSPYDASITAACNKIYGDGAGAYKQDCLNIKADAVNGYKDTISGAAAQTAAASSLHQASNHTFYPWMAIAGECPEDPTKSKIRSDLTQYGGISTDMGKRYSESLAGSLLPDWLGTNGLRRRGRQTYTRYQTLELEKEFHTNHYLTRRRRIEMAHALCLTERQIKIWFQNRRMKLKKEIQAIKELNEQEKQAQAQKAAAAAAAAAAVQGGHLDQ

Sequence of 14-3-3ε (P92177 whole entry): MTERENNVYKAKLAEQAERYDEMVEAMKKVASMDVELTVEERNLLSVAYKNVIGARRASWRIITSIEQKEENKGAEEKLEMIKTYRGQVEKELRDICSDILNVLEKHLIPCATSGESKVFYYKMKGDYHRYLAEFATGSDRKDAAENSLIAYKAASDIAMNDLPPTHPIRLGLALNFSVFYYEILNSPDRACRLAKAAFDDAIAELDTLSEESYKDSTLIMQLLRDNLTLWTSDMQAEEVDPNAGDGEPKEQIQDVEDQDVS
Sequence of Dishevelled (P51140 whole entry): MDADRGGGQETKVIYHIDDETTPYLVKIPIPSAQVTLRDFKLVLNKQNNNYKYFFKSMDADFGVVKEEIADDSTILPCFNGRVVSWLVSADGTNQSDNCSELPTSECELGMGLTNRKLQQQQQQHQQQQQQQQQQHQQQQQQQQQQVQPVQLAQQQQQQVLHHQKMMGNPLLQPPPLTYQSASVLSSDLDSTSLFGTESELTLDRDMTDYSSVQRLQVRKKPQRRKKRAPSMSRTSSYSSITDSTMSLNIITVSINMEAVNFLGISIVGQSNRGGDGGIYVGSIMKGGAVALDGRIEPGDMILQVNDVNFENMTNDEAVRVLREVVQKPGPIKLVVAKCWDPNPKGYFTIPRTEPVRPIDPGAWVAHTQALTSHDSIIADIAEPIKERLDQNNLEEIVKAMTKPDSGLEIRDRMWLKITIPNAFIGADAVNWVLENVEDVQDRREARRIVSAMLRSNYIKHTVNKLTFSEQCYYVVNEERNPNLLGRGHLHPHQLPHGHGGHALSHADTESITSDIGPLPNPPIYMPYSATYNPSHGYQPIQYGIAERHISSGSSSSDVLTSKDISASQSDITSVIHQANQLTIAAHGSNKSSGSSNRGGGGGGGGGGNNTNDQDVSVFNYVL
Sequence of Ribosomal protein L22 (P50887 whole entry): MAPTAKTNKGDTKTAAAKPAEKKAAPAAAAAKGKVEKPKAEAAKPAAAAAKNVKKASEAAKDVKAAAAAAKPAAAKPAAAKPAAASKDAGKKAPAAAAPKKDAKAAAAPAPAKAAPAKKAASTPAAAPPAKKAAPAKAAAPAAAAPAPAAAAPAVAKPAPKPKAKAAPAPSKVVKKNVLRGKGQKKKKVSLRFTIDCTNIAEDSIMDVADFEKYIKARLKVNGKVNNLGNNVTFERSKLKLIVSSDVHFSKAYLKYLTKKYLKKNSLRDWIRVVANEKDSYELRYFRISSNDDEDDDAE
Sequence of UbxIb N103 Pro4 (Drosophila melanogaster) (P83949 other isoform, or with tags, fused parts or gaps amino acids 2–102 removed (N103) | A226P | Q233P): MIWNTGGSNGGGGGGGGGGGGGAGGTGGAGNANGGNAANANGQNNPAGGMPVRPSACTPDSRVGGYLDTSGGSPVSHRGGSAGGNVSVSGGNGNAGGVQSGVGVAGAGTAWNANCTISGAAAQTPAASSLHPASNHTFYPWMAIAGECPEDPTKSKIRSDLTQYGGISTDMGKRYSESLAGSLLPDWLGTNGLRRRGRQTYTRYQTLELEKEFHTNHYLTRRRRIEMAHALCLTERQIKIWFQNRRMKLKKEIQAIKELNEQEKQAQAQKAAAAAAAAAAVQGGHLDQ

Row | percent of reporter signal lost relative to UbxIb Pro4 [1] [%] | percent of reporter signal lost relative to UbxIb Pro4 [2] [%] | percent of reporter signal lost relative to UbxIb Pro4 [3] [%] | Substance
1 | > 59 |  |  | 14-3-3ε (from UniProt P92177 1-262) (natural protein)
2 | > 59 | > 59 | > 59 | Apontic (natural protein)
3 | > 59 |  |  | Dishevelled (from UniProt P51140 1-623) (natural protein)
4 | > 59 |  |  | Ribosomal protein L22 (from UniProt P50887 1-299) (natural protein)
